This test addresses TRAIL receptors on SK-Mel-3 cells. Conditions: ligand.

“And” between values parts separate entries of the source, which are not always exact repeats. Equal entries are not always repeated.

In the case of “GpL-FLAG-TNC-TRAIL (from UniProt P10039)”, the Kd is 4.82 nM and 2.32 nM.

By Kd is commonly meant the free concentration of one partner at which half of the binding sites on the other are occupied at equilibrium, for simple one-to-one binding. Low readings indicate higher affinity, high ones lower affinity.

The values above are taken from article PMC6062497.
